Experimental data from the supplement of paper PMC7125110.
± gives the standard error. For some assays here: Fewer inactive variants are shown than the library holds.

B1: glmS ribozyme (parent)
chain: AUAAAAGCGCCAGAACUACAGAAAUGUAGUUGACGAGGAGGAGGUUUAUCGAAUUUUCGGCGGAUGCCUCCAAA

Tests used:
Conditions in all cases: with glucosamine-6-phosphate
[1] = variants of: B1; experiment: kcat; higher = faster cleavage; RNA array
Method in brief: (§1)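 Over ~14 h at 37 °C, tiles were imaged as glucosamine-6-phosphate (40 μM to 10 mM) in HEPES/KCl/Mg(OAc)2 buffer flowed across sequenced MiSeq chips. The chips carried barcoded ribozyme variants transcribed in situ by E. coli RNA polymerase and tracked with a hybridised Cy3 probe. After normalisation to baseline and to non-cleaving reference variants, one- or two-exponential decay fits of per-tile medians gave kobs. kcat and KM followed from weighted Michaelis–Menten fits across concentrations.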

[2] = variants of: B1; experiment: KM; higher = weaker cofactor use; RNA array
Method in brief: as §1

[3] = variants of: B1; experiment: self-cleavage kobs at 40 uM GlcN6P; higher = faster cleavage; RNA array
Method in brief: as §1

[4] = variants of: B1; experiment: self-cleavage kobs at 160 uM GlcN6P; higher = faster cleavage; RNA array
Method in brief: as §1

[5] = variants of: B1; experiment: self-cleavage kobs at 640 uM GlcN6P; higher = faster cleavage; RNA array
Method in brief: as §1

[6] = variants of: B1; experiment: self-cleavage kobs at 2500 uM GlcN6P; higher = faster cleavage; RNA array
Method in brief: as §1

[7] = variants of: B1; experiment: self-cleavage kobs at 10000 uM GlcN6P; higher = faster cleavage; RNA array
Method in brief: as §1

Row | Variant | kcat [1] [s⁻¹] | KM [2] [µM] | self-cleavage kobs at 40 uM GlcN6P [3] [s⁻¹] | self-cleavage kobs at 160 uM GlcN6P [4] [s⁻¹] | self-cleavage kobs at 640 uM GlcN6P [5] [s⁻¹] | self-cleavage kobs at 2500 uM GlcN6P [6] [s⁻¹] | self-cleavage kobs at 10000 uM GlcN6P [7] [s⁻¹]
1 | U54C G62C | < 1e-05 | 133 ± 48 | < 1e-05 | < 1e-05 | < 1e-05 | < 1e-05 | –
2 | U31C C67A | 0.00103 ± 0.00015 | 1970 ± 540 | 2.9e-05 ± 6.9e-06 | 5.29e-05 ± 2.2e-05 | 0.000244 ± 5.6e-05 | 0.000603 ± 0.00011 | 0.000857 ± 0.0001
3 | U46G C67G | 0.000343 ± 3.5e-05 | 1360 ± 310 | 2.99e-05 ± 1.3e-05 | 2.86e-05 ± 8.4e-06 | 0.000112 ± 1.1e-05 | 0.000241 ± 2.8e-05 | 0.000295 ± 2.3e-05
4 | A15G U65A C71A | 0.000944 ± 0.0002 | 755 ± 320 | 3.84e-05 ± 1.7e-05 | – | 0.000466 ± 5.6e-05 | 0.000535 ± 0.00018 | 0.000965 ± 0.00023
5 | A33G C68G | 3.02e-05 ± 6e-06 | – | – | 3.17e-05 ± 1.3e-05 | 3.59e-05 ± 1.5e-05 | – | –
6 | C58U U69G | 4.53e-05 ± 1.7e-05 | – | 2.63e-05 ± 1.1e-05 | 5.15e-05 ± 1.5e-05 | 6.7e-05 ± 1.6e-05 | 7.55e-05 ± 1.9e-05 | –
7 | G32C C71A | 1.79e-05 ± 3.7e-06 | – | – | – | – | – | –
8 | A15C C70A | 6.11e-05 ± 1.2e-05 | – | – | 3.37e-05 ± 1.6e-05 | 5.56e-05 ± 1.2e-05 | 9.56e-05 ± 1.5e-05 | 4.95e-05 ± 8.2e-06
9 | A14C A52G U57G | 0.000174 ± 4.6e-05 | – | – | – | 8.13e-05 ± 1.9e-05 | 8.49e-05 ± 2.9e-05 | 0.000182 ± 3.1e-05
10 | A15C C70G C71A | 4.1e-05 ± 1.4e-05 | – | – | 4.75e-05 ± 2e-05 | 6.35e-05 ± 1.7e-05 | – | –
11 | U56C G66A | 0.00312 ± 0.0012 | – | 6.93e-05 ± 1.3e-05 | 8.16e-05 ± 1.9e-05 | 0.000501 ± 8.4e-05 | 0.00117 ± 0.00022 | 0.0022 ± 0.00026
12 | C58U C61A | 6.3e-05 ± 2.6e-05 | – | – | 6.42e-05 ± 1.7e-05 | 0.000108 ± 3.4e-05 | 7.93e-05 ± 1.5e-05 | –
13 | C16G G40C | 0.0003 ± 2.6e-05 | 1660 ± 360 | – | – | 8.17e-05 ± 2e-05 | 0.000212 ± 5.8e-05 | 0.000252 ± 3.6e-05
14 | G44U U45A | 0.000658 ± 0.00016 | 1820 ± 740 | – | – | 0.000175 ± 3.5e-05 | 0.000478 ± 9.7e-05 | 0.00046 ± 0.00014
15 | C11U G38A | < 1e-05 | – | < 1e-05 | < 1e-05 | – | – | < 1e-05
